In the nanobody polyreactivity screen of Harvey et al. (2022):

Assay: yeast display, Sf9 membrane polyspecificity reagent, FACS + sequencing; frameworks hold sequencing errors
Summary of the method: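 Nanobodies from a synthetic yeast display library (Saccharomyces cerevisiae BJ5465), induced 36–48 hours with galactose, were stained 1 hour at 4 °C with 10% biotinylated, detergent-solubilized Sf9 membrane reagent, enriched on streptavidin microbeads, then FACS-sorted. Anti-HA (expression) and streptavidin (reagent binding) fluorescence set low and high (top ~1%) gates. Polyreactivity labels come from the gate of origin. Genes were colony-PCR amplified, MiSeq 2 × 250 sequenced and filtered by CDR length.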

With “QVQLLESGGGLVQEGGSLRLSCAASGSTFHSYAMGWYRQAPGKERELVAGINRTGGSTYYADSVKGRFTISRDNAKNTVYLQMNSLKPEDTAVYYCAAVSYYASVYRYDYWGQGTQVTVSS” the “polyreactivity (PSR sort gate)” value was “low polyreactivity”.

For “QVQLEVSGGGLDQAGGSLRLSCAASGFTFVYYVMGCYRQAPGKQWELVAAINAGGGSTYYADSVKGRFTISRDNAKNTVYLQMNSLKPEDTAVYYCNARVRVRLGRNWSSYYYWGQGTQVTVSS”, the “polyreactivity (PSR sort gate)” value was “high polyreactivity”.

In the case of “QDQLVDSGGGLDQAGGSLRLSCAASGIIFPRYALGWYRQAPGKERELVAAITRRGGRTYYADSVKGRFTISRDNAKNTVYLQMNSLKPEDTAVYYCNADFISTLPPKATEEDYWGQGTQVTVSS”, the “polyreactivity (PSR sort gate)” value is reported as “high polyreactivity”.

With “QVQLVESGGGLVQAGGSLRLSCAASGFTFLANGMGWYRQAPGKERELVAGITKDGGSTYADSVKGRFTISRDNAKNTVYLQMNSLKPEDTAVYYCAASIFSFSGGLNNGGTRGYWGQGTQVTVSS” the “polyreactivity (PSR sort gate)” value was “low polyreactivity”.

In the case of “QVHLVESGGGLVQAGGSLRLTCAASGRTFGWNVMGWYRQAPGKERELVAAISGSGGSTYYADSVKGRFTISRDNAKNTVYLQMNSLKPEDTAVYYCAALYGPGREYDYWGQGTQVTVSS”, the “polyreactivity (PSR sort gate)” value is reported as “low polyreactivity”.

With “QVQLVESGGGLVQAGGSLRLSCAASGSIFRGKAMGWYRQAPGKERELVAAITRSGGRTYYADSVKGRFTISRDNAKNTVYLQMNSLKPDDTAVYYCAAEYYTGLGYWGQGTQVTVSS” the “polyreactivity (PSR sort gate)” value was “high polyreactivity”.

In the case of “QVQLVESGGGLVQAGGSLRLSCAASGFTFDYNAMGWYRQAPGKERELVAAISNTGDSTYYADSVKGRFTISRDNAKNTVYLQMNSLKPEDTAVYYCAADSLFYDYWEYDYWGQGTQVTVSS”, the “polyreactivity (PSR sort gate)” value is reported as “low polyreactivity”.

With “QVQLVESGGGLVQAGGSLRLSCAASGSIFPYYAMGWYRQAPGKERELVADITSSVGSTYYADSVKGRFTISRDNAKNTVYLQMNSLKPEDTAVYYCAALYWFYVYPFTEYDYWGQGTQVTVSS” the “polyreactivity (PSR sort gate)” value was “low polyreactivity”.

With “QDQLVESGGGLVQAGGILRLSCAASGITFSYYTMGWYSQAPGKERELVAGITRSGSTYYADSVKGRFTISRDNAKNTVYLQMNSLKPEDTAVYYCAAEIYAFSGLYYYCGQGTQVTVSS” the “polyreactivity (PSR sort gate)” value was “high polyreactivity”.

In the case of “QVQLEESGGGLVQAGGSLRLSCAASGFTISYYAMGWYRQAPGKERELVAAISSSGGSTYYADSVKGRFTISRDNAKNTVYLQMNSLKPDDTAVYYCAAGWPEYLRDGDYWGQGTQVTVSS”, the “polyreactivity (PSR sort gate)” value is reported as “low polyreactivity”.

In the case of “QVQLVESGGDLVQAGGSLRLSCGASGFIFDGYAMGWYRQAPGKERELVAAISSSGGRTHYADSVKGRFKISRDNAMNTVYLQMNSLKAEDTAVYYCAATVRGKRSTYDYWGQGTQVTVSS”, the “polyreactivity (PSR sort gate)” value is reported as “high polyreactivity”.

With “QVQLQESGGVLVQAGGSLRLSCAASGYISWYSEMGWYRKAPCKEREFVATNTCGTTTNYAVSVKGRFTISRDNAKNTVYLQKNSLKPEDTAVYYCAVHDARHYEFDYWGQGTQVTVSS” the “polyreactivity (PSR sort gate)” value was “high polyreactivity”.

For “QVQLVESGGGLVQAGGSLRLSCAASGRTFYINAMGWYRQAPGKERELVATISRSGGDTYYADSVKGRFTISRDNAKNTVYLQMNSLKPEDTAVYYCYARQYYYRSGAYASRYLYNYWGQGTQVTVSS”, the “polyreactivity (PSR sort gate)” value was “high polyreactivity”.

With “QVQLVESGGGLVQAGGSLRLICAASGTFYYYAMGWYRQAHGNERELVAAISTSDTSTYYADSVKGRFTISRDNAKNTVYLQMNSLKPEDTAVYYCAADTYHNFDYWGQGTQVSVSS” the “polyreactivity (PSR sort gate)” value was “low polyreactivity”.

With “QVQLVESGGGLVQAGGSLRLSCAASGSTFSFYDMGWYRQAPGKERELVAAITGSGGTTYYADSVKGRFTISRDNAKNTVYLQMNSLKPEDTAVYYCAADSLESYPDYEYDYWGQGTQVTVSS” the “polyreactivity (PSR sort gate)” value was “low polyreactivity”.

For “QVQRVESGGGLVQAGGSLRLSCAASGGIVSAYAMGWYRQAPGKEREFVASISRRGGSTYYADSVKGRFTISRDNAKNTVYFQMNSLKREDTAVSYCNARKYFEKSREYWGQGTQVTVSS”, the “polyreactivity (PSR sort gate)” value was “high polyreactivity”.

In the case of “QVQLVESGGGLVQAGGSLRLSCAASGRIFRYYAMGWYRQAPGKERELVAAISYSGGRTYYADSVKGRFTISRDNAKNTVYLQMNSLKPEDTAVYYCARFWHSQSSYVPFDSWGQGTQVTVSS”, the “polyreactivity (PSR sort gate)” value is reported as “high polyreactivity”.

For “QVQLVESGGGLVQAGGSLRLSCAASGRIFYTYAMGWYRQAPGKERELVAAITSSGGRTYYADSVKGRFTISRDNAKNTVYLQMNSLKPEVTAVYYCATRYPWGWAMNYWGQGTQVTVSS”, the “polyreactivity (PSR sort gate)” value was “high polyreactivity”.

With “QVQLQESGGGLVQEGGSLRLSCAASGNISPPADMGWYRQAPGKERELVASIGTGGTTNYADSVKGRFTISRDNAKNTVYLQMNSLKPDDTAVYYCAAVRYEYNPYDYWGQGTQVTVRS” the “polyreactivity (PSR sort gate)” value was “low polyreactivity”.

With “QVQLVESGGGLVQAGGSLRLSCAASGITFKFYAMGWYRQAPGKERELVAVITSGGSTYYADSVKGRFTISRDNAKNTVYLQMTSLKPEDTAVFYCASGGNGLYRAYPFYYWGQGTQVTVSS” the “polyreactivity (PSR sort gate)” value was “high polyreactivity”.

With “QVQLVESGGGLVQAGGSLRLSCAASGRTSRSNAMGWYRQAPGKERELVAAISSGGSTYADSVKGRFTISRDNAKNTVYLQMNSLKPEDTAVYYCAARYRTRYAGYNYWGQGTQVTVSS” the “polyreactivity (PSR sort gate)” value was “high polyreactivity”.

With “QVQLVESGAGLVHAGGSLRLSCAASGSTFSPYAMGWYRQAPGKESELVAAITSSGGSTYYADSVKGRFTISRDNAKNTVYLQMISLKPEDTALYYCAAVGYYTSTYDLYDYYYWGQGTHVTVSS” the “polyreactivity (PSR sort gate)” value was “low polyreactivity”.

In the case of “KVQLVESGAGLVQAGGSLRLSCAAYGSIFVGYHMGWYRQAPGKERELVAGITGAGSTNYADSVKGRFTISRENAKNTVYLQMNSLKPEDTAVYYCAADYDTPQGTKYYYWGQGTKVTVSS”, the “polyreactivity (PSR sort gate)” value is reported as “low polyreactivity”.

With “QVQLVESGGGLVQAGGSLRISCAASGSTFDDNAMGWYRQAPGKERELVASITYRGGSTYYADSVKGRFTISRDNAKNTVYLQMNSLKPEDTAVYYCAKGHYFKYDYWGQGTQVTVSS” the “polyreactivity (PSR sort gate)” value was “low polyreactivity”.

For “QVQLVESGGGLVQAGGSLRLSCAASGLTFVPNAMGWYRQAPGKERELFAAISNNGGRTYYADSVKGRFTISRDNAKNTVYLQMNSLKPEDTAVYYCANYLSPGERHSYDYWGQGTKVTVSS”, the “polyreactivity (PSR sort gate)” value was “high polyreactivity”.

For “QVQLVESGGGLVQAGGSLRLSCAASGFTFAYNAMGWYRQAPGKERELVAAISSGGTRTYYADSVKGRFTISRDNAKYTVYLQLNSLNPEDTAVYYCASERVGWSGYRGDYLGQGTQVTVSS”, the “polyreactivity (PSR sort gate)” value was “high polyreactivity”.

With “QVQLVESGGGLVQAGGSLRLSCAASGSTFGHNVMGWYRQSPGKERELVAAISTSGGRTYYADSVKGRFTISRDNAKNTVYLQMNSLKPEDTAVYYCAARVYSTSVVAYYYWGQGTQVTVSS” the “polyreactivity (PSR sort gate)” value was “high polyreactivity”.

For “QVQLVESGGGLVQAGGSLRLSCAASGNIFIYNAMGWYRQAPGKERELVASITYSGDSTYYADSVKGRFTISRDNAKNTVYLQMNSLKPEDTAVYFCAAQGYGWWYDYWGQGSQVTVSS”, the “polyreactivity (PSR sort gate)” value was “low polyreactivity”.

In the case of “QVQLVESGGGLVQAGGSLRLSCAASGGTFRVYAMGWYIQAPGKERELVASISWTVGGTYADSVKGRFTISRDNAKNTVYLQMNSLKPEDTAVYYCAAGGEWVNPYFPSSLDYWGQGTQVTVSS”, the “polyreactivity (PSR sort gate)” value is reported as “low polyreactivity”.

In the case of “QVQLVESGGGLVQAGGSLRLSCAASGLTFWAYAMGWYRQEPGKEREFVAAISWSVDSTYYADSVKGRFTISRDNAKNTVYLQMNSLKPEDTAVYYCAAEWYYVYIAPYRYYYRGQGTQVTVSS”, the “polyreactivity (PSR sort gate)” value is reported as “low polyreactivity”.

With “QVQLVESGGGLVQAGGSLRLSCAASGRTFGSNLMGWYRQAPGKERELVADISVSGGSTNYADSVKGRFTISRDNAKNTVYVQLNSLNPEDTAVYYCAASQLSDWPPYYYDFDYWGQGTQVTVSS” the “polyreactivity (PSR sort gate)” value was “low polyreactivity”.

With “QVQLVDSGGGLVQAGGSLRLSCAASGFTFAYYAMGWYRQAPGKERELVAGISWRGGRTYYADSVKGRFTISRDNAKNTVYLQMNSLKPEDTAVYYCAKQPGNFGRFDYWGQGTKVTVSS” the “polyreactivity (PSR sort gate)” value was “high polyreactivity”.

With “QDQLVESGGGLVQAGGSLRLSCAASVRTCNSYAMGWYRQAPGKERELVADITSSGGSTYYADSVKGRVTISRDNAKNTVYVQMNSLKPEDTAVYYCAADGYTRLPTYLRVTHRSLDYCGQGTQVTVSS” the “polyreactivity (PSR sort gate)” value was “low polyreactivity”.

With “QVQLVESGGGLVQAGGSLRLSCAASGITIVYYTMGWYIQAPGKERELVASITWDGGSTYYADSVKGRFTISRDNAKNTVYLQMNSLKPEDTAVYYCNRDRVSGGKYNYWGQGTQVTVSS” the “polyreactivity (PSR sort gate)” value was “low polyreactivity”.

In the case of “QVQLVESGGGLVQAGGSLRLSCAASGRTFSYYAMGWYRQAPGKERELVASIRKSGASTYYADSVKGRFTISRDNAKNTVYLQMNSLKPEDTAVYYCAARGSRKPDWGLGYWGQGTQVTVSS”, the “polyreactivity (PSR sort gate)” value is reported as “high polyreactivity”.

In the case of “QVQLVESGGGLVQAGGSLRLSCAASGRIFSGYAMGWYRQAPGKERELVAAITSGASTNYADSVKGRFTISRDNAKNTVYLQMNSLKPEDTAVYYCNKKRTADYDYWGQGTQVTVSS”, the “polyreactivity (PSR sort gate)” value is reported as “low polyreactivity”.

With “QVQLVDSGGGLVQAGGSLRLSCAASGGIFYHNAMGWYRQAPGKERELVAAISGRGGRTYYADSVKGRFTISRDNAKNTVYLQMNSLKPEDTAVYYCYADQYKDFDYWGQGTQVTVSS” the “polyreactivity (PSR sort gate)” value was “low polyreactivity”.

In the case of “QDQLVESGGGLVQAGGSLRLSCAASGFTIQAYAMGWYRQAPGKERELVATISKSGGRTYYADSVKGRFTISRDNAKNTVYLQMNSLKPEDTAVYYCNKRVSGRHYDYWGQGTQVTVSS”, the “polyreactivity (PSR sort gate)” value is reported as “high polyreactivity”.

With “QVQLVESGGGLVQAGGSLRLSCAASGRIFVTNTMGWYRQAPGKERELVAAIDNSAGSTYYADSVKGRFTISRDNAKNTVYLQMNSLKPEDTAVYYCAADYPPYYGYGYWGQGTQVSVSS” the “polyreactivity (PSR sort gate)” value was “low polyreactivity”.

In the case of “QVQLVESGGGLVQAGGSLRLSCAASGRTFLRNAMGWYRQAPGKERELVAAITSSGGRTYYADSVKGRFTISRDNAKNTVYLQMNSLKPEDTAVYYCAVDVTVREWFEYYYWGQGTQVTVSS”, the “polyreactivity (PSR sort gate)” value is reported as “high polyreactivity”.

With “QVQLVESGGGLVQAGGSLRLSCAASGSTFVTYAMGRYRQAPGTERELVAAISRRGGSTYYADSVKGRFTISRDNAKYTVYLQLNSLKPVDTAFYYCAAVQGSYSRDGADDYWGQGTQVTVSS” the “polyreactivity (PSR sort gate)” value was “high polyreactivity”.

With “QVQLQESGGGLVKAGGDLRLSCAASGNIFRDYIMGWYRQAPGKEREFVAGIDRGANTNYADSVKGRFTISRDNAKNTVYLQMNSLKPVDTAVYYCGVHTAIVPDFIYWGQGTQVTVSS” the “polyreactivity (PSR sort gate)” value was “low polyreactivity”.

In the case of “QVQLVESGGGLVQAGGRLRISCAASGRIFPYNAMGWYRQAPGKERELVAAISFGGGRTYYADSVKGRFTISRDNAKNTVYLQMNSMKPEDTAVYYCNTASPQDIVFRVFYGGDYWGQGTQVTVSS”, the “polyreactivity (PSR sort gate)” value is reported as “low polyreactivity”.
